To fix the notation:
B1: human alpha-CGRP acylated at position 25 (peptide)
peptide: ACDTATCVTHRLAGLLSRSGGVVKKNFVPTNVGSKAF
modifications: position 25 (printed X) = N-ε-{2-(2-{2-[2-(2-{2-[4-carboxy-4-(17-carboxyheptadecanoylamino)butyrylamino]ethoxy}ethoxy)-acetylamino]ethoxy}ethoxy)acetyl})-L-lysine; Cys2 and Cys7 are cyclised with a disulfide bond

*1 amine or outer side, *2 acyl side, *3 side chain or, on linkers, in order; H or OH if unused. Bridges are numbered along the chain shown (N, C = ends). Where no end group is shown, it is not given here. Side-chain parts run from the residue outwards. The star is where a group is joined. C18 diacid = O=C(O)CCCCCCCCCCCCCCCCC(=O)*; γGlu = O=C(O)[C@H](CCC(=O)[*:2])N[*:1]; AEEA = NCCOCCOCC(=O)O

The target of one test is CGRP receptor (calcitonin receptor-like receptor (CRLR), receptor activity modifying protein-1 (RAMP1)) (Homo sapiens, UniProt O60894+Q16602). Briefly: CGRP-induced cAMP accumulation in CGRP receptor expressing cells (CHO, CRE luciferase reporter). The conditions noted are these: crude SPOT-synthesised peptides, photo-cleaved, in DMSO; CGRP-1-luc cell line. The class given is cell-based. The protocol: Chinese hamster ovary (CHO) cells were stably transfected with calcitonin receptor-like receptor (CRLR), receptor activity modifying protein-1 (RAMP1) and CRE luciferase (cAMP responsive element for control of luciferase gene expression). Luciferase is a reporter-gene reporting accumulation of intracellular cAMP).
Sequence of CGRP receptor (calcitonin receptor-like receptor (CRLR), receptor activity modifying protein-1 (RAMP1)) (Q16602 23-461, species assumed): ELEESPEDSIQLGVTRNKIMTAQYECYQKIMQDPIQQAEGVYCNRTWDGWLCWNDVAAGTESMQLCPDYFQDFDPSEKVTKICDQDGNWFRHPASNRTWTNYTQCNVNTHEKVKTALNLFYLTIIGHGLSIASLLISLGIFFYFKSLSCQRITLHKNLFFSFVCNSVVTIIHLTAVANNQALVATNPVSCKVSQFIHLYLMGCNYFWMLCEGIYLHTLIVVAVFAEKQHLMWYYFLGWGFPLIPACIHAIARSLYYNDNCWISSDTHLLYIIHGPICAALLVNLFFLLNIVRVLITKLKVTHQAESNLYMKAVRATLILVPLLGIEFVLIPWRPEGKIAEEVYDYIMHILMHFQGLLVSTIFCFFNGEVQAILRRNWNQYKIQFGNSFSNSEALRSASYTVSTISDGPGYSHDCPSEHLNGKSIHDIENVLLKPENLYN
Sequence of CGRP receptor (calcitonin receptor-like receptor (CRLR), receptor activity modifying protein-1 (RAMP1)) (O60894 27-148, species assumed): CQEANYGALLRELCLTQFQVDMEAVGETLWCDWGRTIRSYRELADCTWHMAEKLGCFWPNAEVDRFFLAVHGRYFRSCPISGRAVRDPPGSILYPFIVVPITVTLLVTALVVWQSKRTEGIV
Cells were cultured in F12 media supplemented with GlutaMAX™ (Gibco cat no 31765-027), FBS (10%, Gibco 16140-071), Penicillin-streptomycin (1%, Lonza DE-17-602E), G418 (400 μg/ml, Gibco 10131-027), Blasticidine (10 μg/ml, Corning cat no 15205), Hygromycin (400 μg/ml, Calbiochem cat no 400052).
Cells were seeded in a 96 well plate (Packard #6005180), 20000 cells/well in 100 μl media on the day before experimentation. On the day of experimentation media was replaced by assay medium (Dulbecco's media w/o phenol red (Gibco cat no 11880-028) supplemented with 10% FBS (10%, Gibco 16140-071), Hepes (10 mM, Gibco cat no 15630), GlutaMAX™ (2 mM, Gibco cat no 35050), 50 μl/well.
Peptides were diluted in assay media before added to cells for stimulation, 50 μl/well.
Cells were incubated 5% CO2, 37° C. for 4 hours.
Assay medium and peptides were replaced by phosphate buffered saline (PBS, Gibco cat no 14040-091), 100 μl/well and LucLite™ (PerkinElmer, cat no 6076759), 100 μl/well were added. The plate was sealed before incubation for 30 min at room temperature (21° C.). Luciferase activity (luminescens, 7 s/well) was measured (TopCount®, NXT, Packard).
Dose-response curves were fitted by use of GraphPad Prism software and pEC50 values were calculated. Data were given as mean±SEM, n=2 and each analogue was tested twice.
“ACDTATCVTHXLAGLLSRSGGVVKNNFVPTNVGSKAF (ACDTATCVTHK([AEEA-AEEA-γGlu-C18 diacid])LAGLLSRSGGVVKNNFVPTNVGSKAF; disulfide 2-7; ends not checked) [Acylation Position 11, human alpha CGRP, position 11 replaced by X, the acylated L-lysine; Cys2-Cys7 disulfide]”: the “pEC50-ratio relative to human alpha-CGRP, measured by the CGRP-induced cAMP accumulation in CGRP receptor expressing cells” value came out at 0.28.
On to “ACDTATCVTHRLAGLLSRSGGVVKNXFVPTNVGSKAF (ACDTATCVTHRLAGLLSRSGGVVKNK([AEEA-AEEA-γGlu-C18 diacid])FVPTNVGSKAF; disulfide 2-7; ends not checked) [Acylation Position 26, human alpha CGRP, position 26 replaced by X, the acylated L-lysine; Cys2-Cys7 disulfide]”, for which the “pEC50-ratio relative to human alpha-CGRP, measured by the CGRP-induced cAMP accumulation in CGRP receptor expressing cells” value is listed as 0.38.
Still for that read-out and setting: to “ACDTATCVTHRLAGLLSRSGGVVKNNFVXTNVGSKAF (ACDTATCVTHRLAGLLSRSGGVVKNNFVK([AEEA-AEEA-γGlu-C18 diacid])TNVGSKAF; disulfide 2-7; ends not checked) [Acylation Position 29, human alpha CGRP, position 29 replaced by X, the acylated L-lysine; Cys2-Cys7 disulfide]” belongs 0.41; to “ACDTATCVTHRLAGLLSRSGGVVKNNFXPTNVGSKAF (ACDTATCVTHRLAGLLSRSGGVVKNNFK([AEEA-AEEA-γGlu-C18 diacid])PTNVGSKAF; disulfide 2-7; ends not checked) [Acylation Position 28, human alpha CGRP, position 28 replaced by X, the C18 diacid-gamma-Glu-OEG-OEG acylated L-lysine; Cys2-Cys7 disulfide]”, 0.62; to “ACDXATCVTHRLAGLLSRSGGVVKNNFVPTNVGSKAF (ACDK([AEEA-AEEA-γGlu-C18 diacid])ATCVTHRLAGLLSRSGGVVKNNFVPTNVGSKAF; disulfide 2-7; ends not checked) [Acylation Position 4, human alpha CGRP, position 4 replaced by X, the acylated L-lysine; Cys2-Cys7 disulfide]”, 0.15.
Same read-out and setting: to “ACDTATCVTHRLAGLLSRSGGVVKXNFVPTNVGSKAF (ACDTATCVTHRLAGLLSRSGGVVKKNFVPTNVGSKAF; cyclised or stapled) [Acylation Position 25, human alpha CGRP, position 25 replaced by X, the acylated L-lysine; Cys2-Cys7 disulfide]” belongs 0.23.
Same read-out and setting: to “ACDTATCVTHRLAGLLSRSGGVVKNNFVPTXVGSKAF (ACDTATCVTHRLAGLLSRSGGVVKNNFVPTK([AEEA-AEEA-γGlu-C18 diacid])VGSKAF; disulfide 2-7; ends not checked) [Acylation Position 31, human alpha CGRP, position 31 replaced by X, the acylated L-lysine; Cys2-Cys7 disulfide]” belongs 0.44.

Another test has as its target CGRP receptor: calcitonin receptor-like receptor (CRLR) with receptor activity modifying protein-1 (RAMP1), stably transfected in Chinese hamster ovary (CHO) cells together with CRE luciferase. The test is described as follows: cell-based or functional assay.
Conditions: not given
Turning to “rat CGRP-beta (from UniProt P10093 89-125) (peptide)”, the EC50, pM (in vitro potency; CGRP-induced cAMP accumulation in CGRP receptor expressing cells, CRE luciferase) worked out at 9 pM.
For ACDTATCVTHK([AEEA-AEEA-γGlu-C18 diacid])LAGLLSRSGGVVKNNFVPTNVGSKAF (disulfide 2-7; ends not checked) [human alpha-CGRP acylated at position 11], the pEC50-ratio relative to human alpha-CGRP worked out at 0.28.
For the molecule ACDTATCVTHRLAGLLSRSGGVVKNNFK([AEEA-AEEA-γGlu-C18 diacid])PTNVGSKAF (disulfide 2-7; ends not checked) [human alpha-CGRP acylated at position 28], the pEC50-ratio relative to human alpha-CGRP turned out to be 0.62.
On the same count and under the same terms, to ACDTATCVTHRLAGLLSRSGGVVKNK([AEEA-AEEA-γGlu-C18 diacid])FVPTNVGSKAF (disulfide 2-7; ends not checked) [human alpha-CGRP acylated at position 26] belongs 0.38; to ACDTATCVTHRLAGLLSRSGGVVKNNFVK([AEEA-AEEA-γGlu-C18 diacid])TNVGSKAF (disulfide 2-7; ends not checked) [human alpha-CGRP acylated at position 29], 0.41.
Turning to SCNTATCVTHRLAGLLSRSGGVVKDNFVPTNVGSEAF (peptide, UniProt P01256 83-119, looked up, disulfide 2-7; ends not checked) [rat CGRP-alpha], the EC50, pM (in vitro potency; CGRP-induced cAMP accumulation in CGRP receptor expressing cells, CRE luciferase) worked out at 5 pM.
In the case of B1, the pEC50-ratio relative to human alpha-CGRP is 0.23.
On the same count and under the same terms, to ACDTATCVTHRLAGLLSRSGGVVKNNFVPTK([AEEA-AEEA-γGlu-C18 diacid])VGSKAF (disulfide 2-7; ends not checked) [human alpha-CGRP acylated at position 31] belongs 0.44; to ACDK([AEEA-AEEA-γGlu-C18 diacid])ATCVTHRLAGLLSRSGGVVKNNFVPTNVGSKAF (disulfide 2-7; ends not checked) [human alpha-CGRP acylated at position 4], 0.15; to ACK([AEEA-AEEA-γGlu-C18 diacid])TATCVTHRLAGLLSRSGGVVKNNFVPTNVGSKAF (disulfide 2-7; ends not checked) [human alpha-CGRP acylated at position 3], 0.14.

For the origin of these results see patent publication US8835379B2, “Derivatives of CGRP” (Novo Nordisk A/S, priority 2009, dated 2014).
